Data as given in patent US10533231B2, “Artificial bioluminescent enzyme” (NATIONAL INSTITUTE OF ADVANCED INDUSTRIAL SCIENCE AND …, priority 2012, dated 2020).
“Also recorded” adds a separate entry of the source.

Legend:
COS-7 cells [1] = assay: Luminescence stability of ALucs after substrate injection (Example 1-3); format: cell-based, African green monkey; settings: Promega lysis and reaction solution
Method: The luminescence stability of the artificial luciferases (ALucs) of the present invention was examined in various respects (FIG. 3). COS-7 cells containing each luciferase gene were cultured for 9 hours, and treated with a cell lysis solution produced by Promega for 20 minutes. Temporal changes in luciferase luminescence intensity after the introduction of a substrate-containing reaction solution produced by Promega were observed every five minutes (FIG. 3A).
This experiment was expanded to artificial luciferases ALuc16 to ALuc25 (FIG. 3BC).

COS-7 cells [2] = assay: Enzymatic activity confirmation of ALuc (section 3-1, 3-2); format: cell-based, African monkey; settings: vs conventional copepod luciferases
Method: First, using a known lipid reagent for gene introduction, an expression vector encoding ALuc is introduced into African monkey-derived COS-7 cells; as a control, an expression vector having a known GLuc without any mutation into the cells is also introduced in the same manner. At a predetermined time (from 10 to 20 hours, for example, 16 hours) after the introduction of the vector, a cell lysate is prepared using a known lysis reagent.
Thereafter, the cell lysate is mixed with a known substrate solution containing coelenterazine, and its color intensity, temporal stability in luminescence, etc., are measured.
The luminescence intensity may be found by measuring the intensity at a specific wavelength using a known luminescence spectrophotometer after addition of a known substrate. By performing the measurement every minute, the temporal stability in luminescence can be evaluated. To measure a shift to a longer wavelength, scanning of the entire wavelength is necessary.

COS-7 cells [3] = assay: Comparison of luminescence intensity of ALucs (Example 1-2); format: cell-based, African green monkey; settings: COS-7 cultured overnight, Promega assay solution, LAS-4000
Text: The artificial luciferase (ALuc) genes synthesized by the above process were subcloned into mammalian cell expression vectors (pcDNA3.1 (+)). Each expression vector was transfected with African green monkey kidney-derived COS-7 cells, and the luminescence intensity, luminescence stability, and red-shifted degree of artificial luciferases (ALucs) were compared (FIGS. 2 to 5).
First, the luminescence intensity of artificial luciferases (ALucs) was compared (FIG. 2). For the comparison, COS-7 cells containing a vector encoding each luciferase were cultured overnight, and then the relative luminescence intensity was measured by using an assay solution, which is a mixture of a cell lysis solution and a substrate, produced by Promega, and a luminescence image analyzer (LAS-4000).

COS-7 cells [4] = assay: Degree of extracellular secretion of ALucs (Example 1-4); format: cell-based, African green monkey; settings: luminescence intensity of the medium, overnight culture
Method: Further, each luciferase (ALuc) was introduced into COS-7 cells, culturing was performed overnight, and then the amount of each luciferase (ALuc) secreted from the cells was measured based on the luminescence intensity of the medium (FIG. 4B).

[5] = Heat resistance of ALucs in lysate (Example 1-4); format: physicochemical; settings: for change of luminescence intensity by heating: 80° C. for 10 minutes
Method: The heat resistance and degree of extracellular secretion of artificial luciferases of the present invention were measured (FIG. 4). First, to measure heat resistance, COS-7 cells containing each luciferase were lysed in cell lysis solutions produced by Promega to prepare lysates. Subsequently, same samples were allowed to stand at room temperature or heated at 80° C. for 10 minutes, and changes in luminescence intensity were compared by using a (substrate-containing) reaction solution produced by Promega.

[6] = Prolonged activity stability of ALucs secreted in medium (Example 1-19); format: physicochemical; settings: Day 0 to Day 25
Method: The prolonged activity stability of the artificial luciferases (ALucs) developed in the present invention was examined. First, a plasmid expressing each artificial luciferase (ALuc16, ALuc22, ALuc23, ALuc24, ALuc25, and ALuc30) (in the figure, each is referred to as A16, A22, A23, A24, A25, and A30) was introduced into COS-7 cells, and then culturing was continued for 24 hours. By the culturing, each artificial luciferase was secreted into the medium. The artificial luciferase secreted in the medium was collected, and a difference in enzymatic activity was measured under the same conditions in the following manner. On the first day (Day 0), 50 μL of assay solution (containing native coelenterazine, produced by Promega) was added to 5 μL of each medium, and the luminescence value (enzymatic activity) was measured using an LAS-4000 (produced by FujiFilm). In the same manner, the luminescence value on Day 8, Day 16, and Day 25 was compared with the luminescence value on Day 0 (FIG. 19 (A)).

[7] = Temporal change in luminescence after substrate injection, medium 25 days after expression (Example 1-19); format: biochemical; settings: for temporal change of luminescence after substrate injection: medium 25 days after expression
Method: 50 μL of an assay solution (containing native coelenterazine, produced by Promega) was added to 5 μL of each medium 25 days after the expression, and the luminescence value (enzymatic activity) was measured using an LAS-4000 (produced by FujiFilm).

COS-7 cells [8] = assay: Luminescence of ALuc25 to ALuc32 in lysate and medium (Example 1-18); format: cell-based; settings: 20 hours after plasmid introduction
Method: After the insertion of a gene encoding an enzyme sequence as mentioned above into a mammalian expression vector (pcDNA3.1 (+)), each plasmid was introduced into COS-7 cells. By the transformation of these cells, each luciferase was expressed, and some of the luciferase was secreted out of the cells and some of the luciferase retained in the cells. 20 hours after the plasmid introduction, media of the cells were sampled, and the remaining cells were lysed with a lysis buffer (lysate preparation). Immediately after 50 μL of assay solution (containing a substrate) was simultaneously added to each prepared medium (5 μL) or lysate (5 μL), the luminescence value was measured using a luminescence analyzer (LAS-4000; FujiFilm) (n=3) (FIG. 18).

| Molecule | luminescence intensity (initial) (COS-7 cells [1]) | luminescence stability / sustainability after substrate injection (COS-7 cells [1]) | luminescence stability (general statement) (COS-7 cells [2]) | luminescence intensity higher than that of conventional GLuc, Renilla luciferase and MpLuc4 (COS-7 cells [3]) | extracellular secretion (COS-7 cells [4]) | change of luminescence intensity by heating [5] | reduction of luminescence intensity by heating ([5]; 80° C. for 10 minutes vs room temperature) | prolonged enzymatic activity stability [6] | temporal change of luminescence after substrate injection [7] | time of maximum luminescence value after infusion of coelenterazine ([7]; after long-term conservation (25 days)) [min] | luminescence from cell medium (COS-7 cells [8]) | luminescence value from lysate (COS-7 cells [8]) |
| --- | --- | --- | --- | --- | --- | --- | --- | --- | --- | --- | --- | --- |
| ALuc22: artificial luciferase, SEQ ID NO: 15 (protein, Synthetic ALuc22) MMGVKLIFAVLCVAVAQANATINENFEDIDLVAIGGSFADLETDLFTIVEDMNVISRDTDVDANRGGRGRRGKLPGKKLPLEVLKELEANAQKAGCTRGCLICLSHIKCTAKMKKWLPGRCESWEGDKETGQGGIGEAIVDIPEIPGFKDLEPMEQFIAQVDLCVDCTTGCLKGLANVKCSDLLKKWLPSRCATFASKIQAQVDKIKGAGGS | advantageous initial luminescence intensity | decreased to about half of the original luminescence intensity after 6 minutes | remarkably stable luminescence signals | about 50 folds | low extracellular secretion | significantly decreased | about 40% | significant decrease in enzymatic activity |  |  |  |  |
| ALuc24: artificial luciferase, SEQ ID NO: 27 (protein, Synthetic ALuc24) MMGIKVLFALICFALVQANPTENKDDIDIVGVEGKFGTTDLETDLFTIVEDMNVISRDTDVDANRADRGRRGKLPGKKLPLEVLKELEANAQKAGCTRGCLICLSHIKCTAKMKKWLPGRCESWEGDKETGQGGIGEAIVDIPEIPGFKNMAPMEQFIAQVDLCADCTTGCLKGLANVKCSNLLKKWLPSRCKGFANKIQAEVDTIKGLGGS | slightly low in luminescence intensity; also recorded: relatively low luminescence intensity | excellent in luminescence stability; also recorded: extremely higher luminescence sustainability than other artificial luciferases | remarkably stable luminescence signals |  |  |  |  | maintained stable enzymatic activity until Day 25 | abrupt increase in luminescence value after 6 minutes |  |  |  |
| ALuc23: artificial luciferase, SEQ ID NO: 16 (protein, Synthetic ALuc23) MMGIKVLFALICFALVQANPTENKDDIDIVGVEGKFGTTDLETDLFTIVEDMNVISRDTDVDANRADRGRRGKLPGKKLPLEVLKELEANAQKAGCTRGCLICLSHIKCTAKMKKWLPGRCESWEGDKETGQGGIGEAIVDIPEIPGFKELAPMEQFIAQVDLCADCTTGCLKGLANVKCSALLKKWLPSRCAGFADKIQAQVDTIKGAGGS | advantageous initial luminescence intensity |  | remarkably stable luminescence signals | about 50 folds | relatively high extracellular secretion | a remarkable reduction in luminescence intensity that may be due to heating was not observed |  |  | several times higher | 12 |  |  |
| ALuc31: artificial luciferase containing a His tag, SEQ ID NO: 33 (protein, His tag; Synthetic ALuc31) MMGIKVLFALICFALVQANHHHHHHHHDIVGVEGKFGTTDLETDLFTIVEDMNVISRDTDVDANRADRGRRGELPGKKLPLEVLKELEANAQKAGCTRGCLICLSHIKCTAKMKKWLPGRCESWEGDKETGQGGIGEAIVDIPEIPGFKELAPMEQFIAQVDLCADCTTGCLKGLANVKCSALLKKWLPSRCAGFADKIQAQVDTIKGAGGS |  |  | remarkably stable luminescence signals |  |  |  |  |  |  |  | strong bioluminescence | extremely higher than those of conventional GLuc and MpLuc4 |
